Results: article PMC3716654, “The UmuC subunit of the E. coli DNA polymerase V shows a unique interaction with the β-clamp processivity factor” (BMC Structural Biology, 2013)
Where no end group is shown, it is not given here. Dylight649 = Dylight649 fluorophore attached through the cysteine

Target: T1, E. coli β-clamp processivity factor (E. coli, UniProt P0A988 1-366)
T1 construct: DNA polymerase III β subunit (β sliding clamp, dnaN), E. coli, full length, from plasmid pACYC11-dnaN; residues up to Leu-366 are named; The last residue of the hexa-histidine tag is modelled in both subunits; also called sliding clamp; not shown: His6, N-terminal, kept
Experiment: crystal structure; β-clamp/Dylight649-UmuC peptide complex purified by SEC, 15 mg/ml; crystallised in 200 mM calcium acetate, 200 mM MES pH 6.5, 14% PEG 6000, sitting drop, 12°C; 2.5 Å
Details: both partners purified

T1 sequence (P0A988 whole entry): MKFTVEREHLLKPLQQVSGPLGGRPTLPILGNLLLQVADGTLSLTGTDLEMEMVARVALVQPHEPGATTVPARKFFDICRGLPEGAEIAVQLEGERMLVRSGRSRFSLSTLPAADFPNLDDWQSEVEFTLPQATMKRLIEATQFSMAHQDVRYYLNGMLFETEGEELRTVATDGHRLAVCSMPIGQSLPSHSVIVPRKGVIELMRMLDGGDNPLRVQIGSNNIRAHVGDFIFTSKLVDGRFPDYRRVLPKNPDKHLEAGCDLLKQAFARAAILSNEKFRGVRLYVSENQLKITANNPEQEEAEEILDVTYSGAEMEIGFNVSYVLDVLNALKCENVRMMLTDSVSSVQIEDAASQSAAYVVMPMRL

- binding result: binds
B1: Dylight649-UmuC synthetic peptide (Dylight649-C-QGVAQLNLFDD) (peptide)
peptide: C(Dylight649)QGVAQLNLFDD
notes: cysteine added to permit linkage of the chromophore; not a UmuC residue; 12-mer including the added N-terminal cysteine; Only 356-361 (chain D) and 357-361 (chain C) are ordered in the structure; also called Dylight649-Pol V synthetic peptide; UmuC peptide; source: synthetic peptide (Cambridge Peptides)
